# From US20250074943A1 (Amgen, published 2025)
# Numbered stars: 1 amine (or outer) side, 2 acyl side, 3 side chain; on linkers, the order of the positions; unused ones are H or OH. Bridge positions count the residues as written; N and C are the ends. Ends that are not written are not given here. Ttds = non-peptide spacer, O=C(CCC(=O)[*:2])NCCCOCCOCCOCCCN[*:1]
# T1: mouse DLL3 expressed on CHO cells (mouse, UniProt O88516 33-592)
# T1 construct: whole, on cells; also called CHO muDLL3
# T1 sequence (looked up): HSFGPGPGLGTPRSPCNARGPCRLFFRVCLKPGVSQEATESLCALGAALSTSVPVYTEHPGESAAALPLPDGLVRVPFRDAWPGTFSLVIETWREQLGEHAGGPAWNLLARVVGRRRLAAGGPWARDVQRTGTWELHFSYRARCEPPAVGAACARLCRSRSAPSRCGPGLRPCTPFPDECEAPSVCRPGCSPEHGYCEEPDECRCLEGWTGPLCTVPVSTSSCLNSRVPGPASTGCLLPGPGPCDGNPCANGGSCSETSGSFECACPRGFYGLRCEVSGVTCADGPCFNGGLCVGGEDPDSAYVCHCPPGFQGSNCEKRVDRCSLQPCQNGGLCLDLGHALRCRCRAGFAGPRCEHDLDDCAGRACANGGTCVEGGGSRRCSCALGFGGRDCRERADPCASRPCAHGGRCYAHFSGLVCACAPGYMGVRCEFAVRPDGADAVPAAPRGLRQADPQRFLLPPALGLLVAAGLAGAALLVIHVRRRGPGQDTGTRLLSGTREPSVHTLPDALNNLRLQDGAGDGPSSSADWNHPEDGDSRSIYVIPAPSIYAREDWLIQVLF
# T2: rat DLL3 expressed on CHO cells (rat, UniProt O88671 33-589)
# T2 construct: whole, on cells; also called CHO rtDLL3; High CHO rtDLL3
# T2 sequence (looked up): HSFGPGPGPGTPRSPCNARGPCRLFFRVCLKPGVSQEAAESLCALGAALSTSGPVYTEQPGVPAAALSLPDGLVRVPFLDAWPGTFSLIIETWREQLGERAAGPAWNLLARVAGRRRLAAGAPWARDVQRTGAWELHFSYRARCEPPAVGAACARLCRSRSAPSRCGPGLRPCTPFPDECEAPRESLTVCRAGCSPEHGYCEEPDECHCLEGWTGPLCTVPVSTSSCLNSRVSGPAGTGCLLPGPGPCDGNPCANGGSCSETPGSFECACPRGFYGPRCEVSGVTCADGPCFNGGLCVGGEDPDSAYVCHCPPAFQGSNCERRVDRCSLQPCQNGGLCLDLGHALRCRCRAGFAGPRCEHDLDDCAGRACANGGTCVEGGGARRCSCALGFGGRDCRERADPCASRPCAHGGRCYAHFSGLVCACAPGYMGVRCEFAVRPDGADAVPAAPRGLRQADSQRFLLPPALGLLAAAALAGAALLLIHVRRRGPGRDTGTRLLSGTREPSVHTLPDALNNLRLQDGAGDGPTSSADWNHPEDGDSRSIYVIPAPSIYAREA
# T3: recombinant DLL3 ectodomain (rhDLL3-Fc) (human, UniProt Q9NYJ7 27-492, biotinylated (NHS-LC-LC-biotin) in the BLI and SPR assays)
# T3 construct: also called rDLL3-Fc; recombinant human DLL3 (rDLL3); not shown: Fc part
# T3 sequence: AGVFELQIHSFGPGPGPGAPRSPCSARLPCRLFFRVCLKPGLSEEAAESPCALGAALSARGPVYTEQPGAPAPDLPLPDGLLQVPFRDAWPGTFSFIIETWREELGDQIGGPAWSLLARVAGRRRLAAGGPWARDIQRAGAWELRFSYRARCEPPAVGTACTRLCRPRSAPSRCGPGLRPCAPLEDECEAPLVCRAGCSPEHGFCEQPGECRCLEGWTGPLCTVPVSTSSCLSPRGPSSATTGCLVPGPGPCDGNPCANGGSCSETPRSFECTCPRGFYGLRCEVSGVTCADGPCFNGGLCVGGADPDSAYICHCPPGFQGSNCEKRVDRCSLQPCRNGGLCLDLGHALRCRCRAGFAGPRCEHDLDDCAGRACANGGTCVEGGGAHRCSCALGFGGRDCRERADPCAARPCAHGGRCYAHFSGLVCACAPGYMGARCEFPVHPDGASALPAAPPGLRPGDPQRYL
# B1: PepSP1462 labeled with biotin (peptide)
# peptide: Ac-AETVEFWWCNGNSENWTCTWGG-{Ttds-K(PEG4-DBCO)-NH2}
# modifications: disulfide 9-18 (inferred); also: biotin label, site of attachment not given here
# notes: also called PepSP1462-biotin peptide; labeled PepSP1462 peptide
# Assays:
# [1] = biological target: T1, mouse DLL3 expressed on CHO cells; assay: flow cytometry, 100 µM biotin-labelled PepSP1462 detected with anti-streptavidin-AF488 antibody; CHO huFLT3 as negative control cell line
# Procedure: (§2) Peptide PepSP1462, identified herein was biotin labeled. The biotin labeled peptide was detected using an anti-streptavidin antibody conjugated to AF488. The AF488-labeled peptide was detected directly.
# (§3) Binding specificity of the labeled peptide for DLL3 was assessed using DLL3-negative cell lines. […] Cells were then washed twice with FACS buffer and incubated with an anti-streptavidin antibody conjugated to AF488 (Thermo Fisher). […] Cells were then washed twice with FACS buffer an resuspended in FACS buffer that contained 0.5 μg/ml propidium iodide. Cells were analyzed by flow cytometry, using an LSR Fortessa and FACSDiva software (Becton Dickinson) or Flow Jo (Flow Jo LLC).
# [2] = biological target: T2, rat DLL3 expressed on CHO cells; assay: as above
# Procedure: as §2, §3
# [3] = biological target: T4, human FLT3 expressed on CHO cells (human, UniProt P36888 27-993); assay: flow cytometry, biotin-labelled PepSP1462 detected with anti-streptavidin-AF488 antibody
# T4 construct: whole, on cells; Negative control cell line; also called CHO huFLT3; CHO huFTL3
# Procedure: as §2, §3
# [4] = biological target: T3, recombinant DLL3 ectodomain (rhDLL3-Fc); assay: kinetic assay, method not told for this table (BLI, SPR or flow cytometry)
# [5] = biological target: T3, recombinant DLL3 ectodomain (rhDLL3-Fc); assay: BLI (Octet), biotinylated rhDLL3-Fc on streptavidin sensors; second listing of 1161 in Table 4, rounded
# Procedure: (§1) Binding kinetic assays were performed using Bio-layer interferometry (BLI) technology. The recombinant DLL3 ectodomain (rhDLL3-Fc) was biotinylated using EZ-Link Sulfo-NHS-LC-LC-Biotin Kit according to the manufacturer's protocol (Pierce by Thermo Fisher Scientific). The recombinant protein was incubated with an excess of NHS-LC-LC Biotin ester, in a molar ratio of 1:3 (protein: biotin), at 25° C. for 90 min. The un-reacted biotin ester was removed by subsequent buffer exchange on 0.5 ml Zeba spin desalting columns 7K MWCO (Pierce by Thermo Fisher Scientific).
# [6] = biological target: T3, recombinant DLL3 ectodomain (rhDLL3-Fc); assay: BLI (Octet), biotinylated rhDLL3-Fc on streptavidin sensors
# Procedure: as §1
binder,measurement,setting,value
B1,binding result,[1],binds
same,binding result,[2],binds
same,binding result,[3],no binding (tested: 100 µM)
"Ac-AETVEFWWCNGNSENWTCTWGG-{Ttds-K(Ttds-Ttds)-NH2} (disulfide 9-18 (inferred), also called PspSP1342) [PepSP1342]",RT,[4],199
AETVEFWDCWGNTDDWTCTW-NH2 (disulfide 9-18 (inferred)) [PepSP1161],Kd,[5],43 nM
same,Kd,[6],42.5 nM
same,RT (residence time),[6],87.8 s
Ac-AETVEFWWCNGNSENWTCTWGG-{Ttds-Lys-NH2} (disulfide 9-18 (inferred)) [PepSP1324],RT,[4],189
Ac-AETVEFWGCTGTWGNETCWWGG-{Ttds-Lys-NH2} (disulfide 9-18 (inferred)) [PepSP1321],RT,[4],369
